Assays:
[1] = molecular target: T1, biotinylated CXCR4-virus like particle (Integral Molecular, Lot INT-1793B) (human, UniProt P61073 1-352, VLP biotinylated, sites not stated); assay: SPR (Biacore 8K), biotinylated CXCR4 VLP captured on SA chip, Fab as analyte, 25 C, 1:1 model
T1 construct: also called hCXCR4 VLP; CXCR4 VLP

CXCR4 StaR nanodiscs = molecular target: T2, CXCR4 StaR nanodiscs; assay: SPR (Biacore T200), IgG4-PE antibody captured by anti-IgG on CM5, CXCR4 StaR nanodiscs at 250 nM as analyte, 25 C, 1:1 model; N = 1
T2 construct: Purified receptor in lipid-protein nanodiscs; also called StaR CXCR4; thermostabilised CXCR4
Experimental: Anti-IgG antibodies were immobilised on chip CM5 (GE Healthcare) by amine coupling. […] A channel with no anti-CXCR4 antibodies captured was used as a reference. […] The blank-subtracted sensorgrams were fitted to the 1:1 interaction model using the Biacore T200 evaluation software. The assay was run at 25° C. using 0.01 M HEPES pH 7.4, 0.15 M NaCl as running buffer.

[2] = molecular target: T3, human CXCR4 (cell-expressed) (human, UniProt P61073 1-352); assay: cell-based or functional assay
T3 sequence (P61073 whole entry): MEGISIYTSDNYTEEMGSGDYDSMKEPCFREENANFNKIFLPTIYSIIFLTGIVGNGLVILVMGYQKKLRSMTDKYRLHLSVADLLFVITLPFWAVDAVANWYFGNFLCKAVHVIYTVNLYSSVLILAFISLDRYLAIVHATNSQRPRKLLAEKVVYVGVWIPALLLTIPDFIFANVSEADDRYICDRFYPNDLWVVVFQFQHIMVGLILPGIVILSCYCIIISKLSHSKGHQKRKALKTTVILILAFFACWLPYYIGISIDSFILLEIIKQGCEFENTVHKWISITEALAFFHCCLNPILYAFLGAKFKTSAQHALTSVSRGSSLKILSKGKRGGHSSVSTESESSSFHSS

[3] = molecular target: T3, human CXCR4 (cell-expressed); assay: cell-based or functional assay; remark: listed apart in the source
[4] = molecular target: T4, terbium-labelled SNAP-CXCR4 on HEK-293 cells (Cisbio C1TT1CXCR4) (human, UniProt P61072 1-352 (Pan troglodytes entry), terbium label on the SNAP tag); assay: TR-FRET (Tag-lite) competition with AlexaFluor 647-CXCL12 on terbium-labelled SNAP-CXCR4 HEK-293 cells
T4 construct: Bought assay-ready cells; also called CXCR4 expressing cells; not shown: SNAP tag
T4 sequence (P61072 whole entry): as the sequence (P61073 whole entry) above

[5] = molecular target: T3, human CXCR4 (cell-expressed); assay: cell-based or functional assay; remark: listed apart in the source
[6] = molecular target: T3, human CXCR4 (cell-expressed); assay: cell-based or functional assay; remark: listed apart in the source
[7] = molecular target: T3, human CXCR4 (cell-expressed); assay: cell-based or functional assay; remark: listed apart in the source
cynomolgus CXCR4 [8] = molecular target: T5, cynomolgus CXCR4 (cynomolgus monkey, UniProt Q28474 1-352); assay: flow cytometry on CHO-S cells expressing cynomolgus CXCR4
T5 construct: also called cyno CXCR4; cynomolgus monkey CXCR4
T5 sequence (Q28474 whole entry): as the sequence (P61073 whole entry) above, with M24I, N35H, K38R, R146K, N176S counted along it
Experimental: Cynomolgus monkey CXCR4 expressing CHO-S cells were plated at 100 uL/well of cells at 1 million of cells/mL (0.1 million of cells/well) into a 96 well V-bottom plate (Greiner). Plates were centrifuged at 300×g for 3 min at 4° C. and supernatant discarded. […] Primary antibody dilutions were added to cells (50 μL/well) and cell pellets resuspended by pipetting. Plates was incubated for 1 h at 4° C. 100 μL/well of PBS, was added and plates centrifuged at 300×g for 3 min at 4° C. and supernatant discarded. This step was repeated twice. […] Cells were resuspended by pipetting. Plates were incubated for 1 h at 4° C. 100 μL/well PBS, was added and plates centrifuged at 300×g for 3 min at 4° C. and supernatant discarded. This step was repeated twice. Finally, cells were resuspended in 100 μL/well of PBS and analysed on CytoFLEX (Beckman Coulter).
Binding of antibodies to cynomolgus CXCR4 expressed on CHO-S cells was analysed by gating the main cell population using forward and side scatter (Flow Jo, Flow Jo LLC) to allow for doublet discrimination. […] EC₅₀ values were calculated by transforming the data and fitting a 4-parameter logistic regression curve to each antibody titration.

[9] = molecular target: T3, human CXCR4 (cell-expressed); assay: cell-based or functional assay; remark: listed apart in the source
cynomolgus CXCR4 [10] = molecular target: T5, cynomolgus CXCR4; assay: cell-based or functional assay
[11] = molecular target: T3, human CXCR4 (cell-expressed); assay: cell-based or functional assay; remark: listed apart in the source
human CXCR7 = molecular target: T6, human CXCR7 (human, UniProt P25106 1-362); assay: flow cytometry on CHO-S cells expressing human CXCR7, Alexa Fluor 647 secondary antibody, GeoMean (647 nm)
T6 construct: Expressed on CHO-S cells
T6 sequence (P25106 whole entry): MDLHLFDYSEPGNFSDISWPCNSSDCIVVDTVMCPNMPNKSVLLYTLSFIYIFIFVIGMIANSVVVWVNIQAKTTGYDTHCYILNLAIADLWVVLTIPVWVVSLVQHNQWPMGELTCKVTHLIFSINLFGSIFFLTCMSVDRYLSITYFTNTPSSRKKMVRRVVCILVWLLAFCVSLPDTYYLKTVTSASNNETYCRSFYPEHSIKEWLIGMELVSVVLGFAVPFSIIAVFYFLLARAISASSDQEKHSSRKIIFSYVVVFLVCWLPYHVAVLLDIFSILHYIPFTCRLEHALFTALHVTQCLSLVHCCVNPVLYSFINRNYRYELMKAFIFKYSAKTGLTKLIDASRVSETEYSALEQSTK
Experimental: CXCR7 expressing CHO-S cells were plated at 100 μL/well of cells at 1 million of cells/mL (0.1 million of cells/well) into a 96 well V-bottom plate (Greiner). Plates were centrifuged at 300×g for 3 min at 4° C. and supernatant discarded. […] Primary antibody dilutions were added to cells (100 μL/well) and cell pellets resuspended by pipetting. Plate was incubated for 1 h at 4° C. 100 μL/well of PBS, was added and plates centrifuged at 300×g for 3 min at 4° C. and supernatant discarded. This step was repeated twice. […] Cells were resuspended by pipetting. Plate was incubated for 1 h at 4° C. 100 μL/well of PBS, was added and plates centrifuged at 300×g for 3 min at 4° C. and supernatant discarded. This step was repeated twice. Finally, cells were resuspended in 100 μL/well of PBS and analysed on CytoFLEX (Beckman Coulter).
Binding of antibodies to CXCR7 expressed on CHO-S cells was analysed by gating the main cell population using forward and side scatter (Flow Jo, Flow Jo LLC) to allow for doublet discrimination.

T1 sequence (P61073 whole entry): as the sequence (P61073 whole entry) above

| Binder | Kd [1] [nM] | koff [1] [s⁻¹] | kon [1] [M⁻¹ s⁻¹] | Kd (CXCR4 StaR nanodiscs) [nM] | koff (CXCR4 StaR nanodiscs) [s⁻¹] | kon (CXCR4 StaR nanodiscs) [M⁻¹ s⁻¹] | % effect (remaining % of CXCL12 response), DMR assay, human T-cells [2] [%] | IC50, label-free DMR assay, isolated human T-cells, EC80 CXCL12 [2] [nM] | % of max migration at 120 nM Ab, primary naïve T-cell trans-well migration [3] [%] | % Max Inhibition [4] [%] | IC50 [4] [nM] | IC50 of antibody in presence of 30 nM CXCL12, human T-cell transwell chemotaxis [5] | IC50 n = 1, Jurkat chemotaxis towards 30 nM CXCL12 (IncuCyte) [6] [nM] | IC50 n = 2, Jurkat chemotaxis towards 30 nM CXCL12 (IncuCyte) [6] [nM] | IC50 n = 3, Jurkat chemotaxis towards 30 nM CXCL12 (IncuCyte) [6] [nM] | Mean IC50, Jurkat chemotaxis towards 30 nM CXCL12 (IncuCyte) [6] [nM] | % Max Inhibition, cAMP HTRF assay, CXCR4 BacMam HEK-293 cells [7] [%] | IC50, cAMP HTRF assay, CXCR4 BacMam HEK-293 cells, 5.5 nM CXCL12 [7] [nM] | % Max Inhibition, beta-arrestin reporter assay, Tango CXCR4-bla U2OS cells [11] [%] | IC50, beta-arrestin reporter assay, Tango CXCR4-bla U2OS cells, 30 nM CXCL12 [11] [nM] | other results |
| --- | --- | --- | --- | --- | --- | --- | --- | --- | --- | --- | --- | --- | --- | --- | --- | --- | --- | --- | --- | --- | --- |
| CL-83083 Fab fragment (Fab, V domains shown, Purified Fab fragment) VH: EVQLVESGGGLVQPGGSLKLSCAASGFTFSGSAMHWVRQASGKGLEWVGRIRSKANKYATAYAASVKGRFTISRDDSKNTAYVQMKSLKTEDTAVYYCTWELSNYDILTGFYYGMDVWGQGTTVTVSS VL: QAGLTQPPSVSKGLRQTATLTCTGNSNNVGNLGAAWLQQHQGHPPKLLSYRNNNRPSGISERFFASRSGNTASLTITGLQPEDEADYYCSAWDSSLSAWVFGGGTKLTVL | 1.86 | 0.00102 | 546000 |  |  |  |  |  |  |  |  |  |  |  |  |  |  |  |  |  |  |
| CL-82458 (antibody, human IgG4 S228P, kappa, V domains shown, Tested in human IgG4-PE format; also called CL-82458 (IgG4-PE format)) VH: EVQLVESGGDLVQPGGSLRLSCAASGFTFYSYAMNWVRQAPGKGLKWVSGISGSGDITYYADSVKGRFTISRDNSKNTLYLQMHSLRPEDTAIYYCAKGQLERRYYKYYGMDVWGQGTTVTVSS VL: DIQMTQSPSSLSASVGDRVTITCRANQGIRNDLGWYQQKPGKAPKRLIYGASSLKSGVPSRFSGSGSGTEFTLTISSLQPEDFATYYCLQQNSYPLTFGGGTKVEIKR |  |  |  | 7.5 | 0.00046 | 61000 | 2 | 12.1 | 17.6 | 99 | 0.79 | 0.26 not printed (nM assumed) | 2.18 | 3.43 | 1.66 | 2.42 | 88 | 40 | 102 | 0.31 | EC50 (cynomolgus CXCR4 [8]): 2.2 nM; Max Signal (Total Overlap Object Area), internalisation on Ramos cells, live-cell imaging [9]: 20800 µm^2 per image; % Maximum Inhibition, cAMP HTRF assay, cyno CXCR4 BacMam HEK-293 cells (cynomolgus CXCR4 [10]): 78%; IC50, cAMP HTRF assay, cyno CXCR4 BacMam HEK-293 cells (cynomolgus CXCR4 [10]): 2 nM; binding result (human CXCR7): no binding (tested: log(M) about -6.9 (about 1.2e-7 M)) |
| CL-82458 Fab fragment (Fab, V domains shown, Purified Fab fragment) VH: EVQLVESGGDLVQPGGSLRLSCAASGFTFYSYAMNWVRQAPGKGLKWVSGISGSGDITYYADSVKGRFTISRDNSKNTLYLQMHSLRPEDTAIYYCAKGQLERRYYKYYGMDVWGQGTTVTVSS VL: DIQMTQSPSSLSASVGDRVTITCRANQGIRNDLGWYQQKPGKAPKRLIYGASSLKSGVPSRFSGSGSGTEFTLTISSLQPEDFATYYCLQQNSYPLTFGGGTKVEIK | 1.26 | 0.00111 | 887000 |  |  |  |  |  |  |  |  |  |  |  |  |  |  |  |  |  |  |
| CL-83083 (antibody, human IgG4 S228P, lambda, Tested in human IgG4-PE format; lambda light chain; also called CL-83083 (IgG4-PE format)) heavy: not shown light: QAGLTQPPSVSKGLRQTATLTCTGNSNNVGNLGAAWLQQHQGHPPKLLSYRNNNRPSGISERFFASRSGNTASLTITGLQPEDEADYYCSAWDSSLSAWVFGGGTKLTVLGQPKAAPSVTLFPPSSEELQANKATLVCLISDFSPGAVTVAWKADSSPVKAGVETTTPSKQSNNKYAASSYLSLTPEQWKSHKSYSCQVTHEGSTVKKTVAPTECS |  |  |  | 7.1 | 0.00097 | 140000 | 5.1 | 3.58 | 25.7 | 96 | 1.74 | 0.35 not printed (nM assumed) | 0.47 | 0.43 | 0.34 | 0.41 | 80 | 36 | 98.9 | 0.43 | IC50, primary naïve T-cell trans-well migration [3]: 1.55 nM; EC50 (cynomolgus CXCR4 [8]): 11 nM; Max Signal (Total Overlap Object Area), internalisation on Ramos cells, live-cell imaging [9]: 9670 µm^2 per image; % Maximum Inhibition, cAMP HTRF assay, cyno CXCR4 BacMam HEK-293 cells (cynomolgus CXCR4 [10]): 84%; IC50, cAMP HTRF assay, cyno CXCR4 BacMam HEK-293 cells (cynomolgus CXCR4 [10]): 11.8 nM; binding result (human CXCR7): no binding (tested: log(M) about -6.9 (about 1.2e-7 M)) |
| CL-83083-2 (antibody, human IgG4 S228P, lambda, Same variable domains as CL-83083, different lambda constant region; tested in human IgG4-PE format; also called CL-83083-2 (IgG4-PE format)) heavy: not shown light: QAGLTQPPSVSKGLRQTATLTCTGNSNNVGNLGAAWLQQHQGHPPKLLSYRNNNRPSGISERFFASRSGNTASLTITGLQPEDEADYYCSAWDSSLSAWVFGGGTKLTVLGQPKAAPSVTLFPPSSEELQANKATLVCLISDFYPGAVTVAWKADSSPVKAGVETTTPSKQSNNKYAASSYLSLTPEQWKSHKSYSCQVTHEGSTVEKTVAPTECS |  |  |  |  |  |  | 4.4 | 3.98 |  | 97 | 3.92 |  |  |  |  |  | 93 | 44 | 96.9 | 0.79 |  |
| CL-82574 Fab fragment (Fab, V domains shown, Purified Fab fragment) VH: QVQLVESGGGVVQPGRSLRLSCAASGFTFYSYGMHWVRQAPGKGLEWVAVIWYGGTNKYYADSVKGRFTISRDNSKNTLYLQMNSLTAEDTAVYYCARGQLERRRGGLNIWGQGTVVTVSS VL: DIQMTQSPSSLSASVGDRVTITCRASQGVRDDLGWYQQKPGKAPKRLIYAASSLQSGVPSRFSGSGSGTEFTLTISSLQPEDFATYYCLQHNSYPFTFGPGTKVDIK | 0.52 | 0.000481 | 927000 |  |  |  |  |  |  |  |  |  |  |  |  |  |  |  |  |  |  |
| CL-82658 Fab fragment (Fab, V domains shown, Purified Fab fragment) VH: QVQLVESGGGVVQPGRSLRLSCAASGFSFSSYGMHWVRQAPGKGLEWVAVISYDGSNKYYADSVKGRFTISRDNSKNTLYLQMNSLRGEDTAVYYCSKGSLTPRRGYYYSYGMDVWGQGTTVTVSS VL: DIQMTQSPSSLSASVGDRVTITCRASQGIRNDLSWYQQKPGKAPKRLIYAASSLQSGVPSRFSGSGSGTEFTLTISSLQPEDFATYYCLQHNGYPFTFGPGTKVDIK | 0.69 | 0.000423 | 616000 |  |  |  |  |  |  |  |  |  |  |  |  |  |  |  |  |  |  |
| CL-82574 (antibody, human IgG4 S228P, kappa, Tested in human IgG4-PE format; also called CL-82574 (IgG4-PE format)) heavy: not shown light: DIQMTQSPSSLSASVGDRVTITCRASQGVRDDLGWYQQKPGKAPKRLIYAASSLQSGVPSRFSGSGSGTEFTLTISSLQPEDFATYYCLQHNSYPFTFGPGTKVDIKRTVAAPSVFIFPPSDEQLKSGTASVVCLLNNFYPREAKVQWKVDNALQSGNSQESVTEQDSKDSTYSLSSTLTLSKADYEKHKVYACEVTHQGLSSPVTKSFNRGEC |  |  |  | 8 | 0.00088 | 110000 | 0.68 | 2.09 | 5.44 | 98 | 0.63 | 0.21 not printed (nM assumed) | 0.32 | 0.62 | 0.63 | 0.52 | 96 | 21 | 99.5 | 0.14 | IC50, primary naïve T-cell trans-well migration [3]: 0.95 nM; EC50 (cynomolgus CXCR4 [8]): 3.5 nM; Max Signal (Total Overlap Object Area), internalisation on Ramos cells, live-cell imaging [9]: 18100 µm^2 per image; % Maximum Inhibition, cAMP HTRF assay, cyno CXCR4 BacMam HEK-293 cells (cynomolgus CXCR4 [10]): 90%; IC50, cAMP HTRF assay, cyno CXCR4 BacMam HEK-293 cells (cynomolgus CXCR4 [10]): 1.2 nM; binding result (human CXCR7): no binding (tested: log(M) about -6.9 (about 1.2e-7 M)) |

Source: patent publication US20240294651A1 (KYMAB, published 2024)
